Values of other authors, collected in article PMC9776395.

Biological target: His193 (UniProt position 193, WVLGEHGDSSV)
Test: kinetics
Conditions: Enzyme-NADH complex binding pyruvate (pyruvate reduction direction)

For “L-lactate dehydrogenase A chain (LDHA, M subunit, LDH5 homotetramer) (Homo sapiens)”, the pKa is given as 7.31.
